In the Human Domainome abundance scans (Beltran et al. 2025):
± gives the uncertainty stated by the source.

B1: Gamma-crystallin C, residues 91 to 170; numbered along this chain, P07315 (parent)
chain: RLYEREDHKGLMMELSEDCPSIQDRFHLSEIRSLHVLEGCWVLYELPNYRGRQYLLRPQEYRRCQDWGAMDAKAGSLRRV

Variants of: B1
Test: abundance fitness (aPCA) (normalised: wild type 0, dead -1); higher = more abundant; growth selection in yeast, the domain comes from the species named
Details: Homo sapiens

K73W and K73F are within error of each other in abundance fitness: -0.321 ± 0.12 for the first, -0.368 ± 0.14 for the second.

K73H and D71I are within error of each other in abundance fitness: -0.042 ± 0.18 for the first, -0.297 ± 0.18 for the second.

D71M and D71F are within error of each other in abundance fitness: -0.443 ± 0.23 for the first, -0.148 ± 0.099 for the second.

E4M and R32N are within error of each other in abundance fitness: -0.019 ± 0.26 for the first, -0.146 ± 0.1 for the second.

Going from R32L to K9A, the abundance fitness rises from -0.359 ± 0.088 to -0.129 ± 0.053.

K9M and H8Y are within error of each other in abundance fitness: 0.212 ± 0.12 for the first, 0.111 ± 0.1 for the second.

First: M13V
Second: M13H
The abundance fitness of the first is higher: -0.002 ± 0.071 for the first, -0.283 ± 0.11 for the second.

Going from M13Q to P20W, the abundance fitness falls from -0.22 ± 0.085 to -0.503 ± 0.08.

P20M and P20V are within error of each other in abundance fitness: -0.684 ± 0.39 for the first, -0.345 ± 0.06 for the second.

Going from F26Y to F26M, the abundance fitness rises from -0.461 ± 0.25 to -0.049 ± 0.1.

F26Q and E6R are within error of each other in abundance fitness: -0.787 ± 0.17 for the first, -0.642 ± 0.096 for the second.

Going from E6A to S21Y, the abundance fitness falls from -0.284 ± 0.082 to -0.762 ± 0.18.

Compared with S21R, Y44F is higher in abundance fitness: -0.454 ± 0.052 for the first, -0.069 ± 0.088 for the second.

Y44Q and Y44L are within error of each other in abundance fitness: -0.567 ± 0.4 for the first, -0.648 ± 0.086 for the second.

Y44V and Y44A are within error of each other in abundance fitness: -0.784 ± 0.13 for the first, -0.671 ± 0.18 for the second.

D24H and D24N are within error of each other in abundance fitness: -0.087 ± 0.24 for the first, -0.183 ± 0.13 for the second.

Going from D24W to I31G, the abundance fitness falls from -0.516 ± 0.088 to -1.01 ± 0.15.

I31N and I31E are within error of each other in abundance fitness: -0.912 ± 0.17 for the first, -0.987 ± 0.4 for the second.

L55H and L55A are within error of each other in abundance fitness: -0.053 ± 0.14 for the first, -0.09 ± 0.086 for the second.

R62N and R62T are within error of each other in abundance fitness: -0.64 ± 0.41 for the first, -0.262 ± 0.075 for the second.

Going from P58T to S76V, the abundance fitness falls from -0.105 ± 0.1 to -0.773 ± 0.18.

G68S and G68D are within error of each other in abundance fitness: -0.44 ± 0.11 for the first, -0.679 ± 0.27 for the second.

G68L and G68K are within error of each other in abundance fitness: -0.529 ± 0.092 for the first, -0.623 ± 0.26 for the second.

Q59N and Q59I are within error of each other in abundance fitness: -0.364 ± 0.34 for the first, -0.145 ± 0.088 for the second.

G51A and G51S are within error of each other in abundance fitness: -0.833 ± 0.27 for the first, -0.962 ± 0.18 for the second.

Going from G51V to S29W, the abundance fitness rises from -0.93 ± 0.2 to -0.113 ± 0.056.

S29V and S29I are within error of each other in abundance fitness: -0.328 ± 0.094 for the first, -0.408 ± 0.19 for the second.

S29P and L28H are within error of each other in abundance fitness: -0.199 ± 0.084 for the first, -0.448 ± 0.23 for the second.

L28W and L28K are within error of each other in abundance fitness: 0.134 ± 0.14 for the first, -0.022 ± 0.14 for the second.

L28P and L43E are within error of each other in abundance fitness: -0.864 ± 0.14 for the first, -0.804 ± 0.16 for the second.

L43N and L43R are within error of each other in abundance fitness: -0.673 ± 0.32 for the first, -1.01 ± 0.15 for the second.

L43H and V36L are within error of each other in abundance fitness: -0.757 ± 0.29 for the first, -0.632 ± 0.09 for the second.

First: V36I
Second: G39P
The abundance fitness of the first is higher: -0.013 ± 0.089 for the first, -0.798 ± 0.31 for the second.

G39E and R50C are within error of each other in abundance fitness: -0.186 ± 0.089 for the first, -0.021 ± 0.097 for the second.

R50Y and Y61C are within error of each other in abundance fitness: -0.606 ± 0.42 for the first, -0.934 ± 0.14 for the second.

Y61M and Y61A are within error of each other in abundance fitness: -0.964 ± 0.2 for the first, -1.04 ± 0.34 for the second.

E14C and E14R are within error of each other in abundance fitness: -0.565 ± 0.21 for the first, -0.397 ± 0.092 for the second.

First: E14T
Second: E14G
The abundance fitness of the first is higher: -0.169 ± 0.091 for the first, -0.524 ± 0.11 for the second.

D7Q and D7Y are within error of each other in abundance fitness: -0.273 ± 0.14 for the first, -0.098 ± 0.16 for the second.

Going from D7E to A74D, the abundance fitness falls from -0.03 ± 0.093 to -0.749 ± 0.35.

A74M and S33F are within error of each other in abundance fitness: -0.836 ± 0.37 for the first, -0.99 ± 0.1 for the second.

G75D and G75H are within error of each other in abundance fitness: -0.705 ± 0.21 for the first, -0.736 ± 0.47 for the second.

D66Q and R1E are within error of each other in abundance fitness: -0.491 ± 0.12 for the first, -0.756 ± 0.22 for the second.

Compared with R1V, H35G is lower in abundance fitness: -0.381 ± 0.17 for the first, -0.845 ± 0.12 for the second.

First: H35W
Second: H35I
The abundance fitness of the first is lower: -0.354 ± 0.12 for the first, -0.004 ± 0.1 for the second.

H35E and Y49N are within error of each other in abundance fitness: 0.139 ± 0.091 for the first, -0.198 ± 0.3 for the second.

Y49K and L15N are within error of each other in abundance fitness: -0.918 ± 0.5 for the first, -0.6 ± 0.34 for the second.

H27C and H27S are within error of each other in abundance fitness: -0.115 ± 0.26 for the first, -0.079 ± 0.053 for the second.

Q53D and Q53A are within error of each other in abundance fitness: -0.241 ± 0.2 for the first, -0.122 ± 0.056 for the second.

Q53G and Q53W are within error of each other in abundance fitness: -0.103 ± 0.065 for the first, -0.225 ± 0.11 for the second.

Q53S and Q53N are within error of each other in abundance fitness: 0.074 ± 0.056 for the first, 0.005 ± 0.35 for the second.

R52N and R52A are within error of each other in abundance fitness: -0.031 ± 0.49 for the first, 0.009 ± 0.11 for the second.

R52Q and R52E are within error of each other in abundance fitness: -0.128 ± 0.13 for the first, -0.28 ± 0.19 for the second.

Compared with C19R, C19L is higher in abundance fitness: -0.886 ± 0.11 for the first, -0.659 ± 0.099 for the second.

L46T and L46V are within error of each other in abundance fitness: -0.863 ± 0.18 for the first, -0.98 ± 0.35 for the second.

L46Y and L46K are within error of each other in abundance fitness: -0.162 ± 0.14 for the first, -0.051 ± 0.089 for the second.

M70V and M70H are within error of each other in abundance fitness: -0.017 ± 0.083 for the first, 0.049 ± 0.11 for the second.

First: M70G
Second: M70P
The abundance fitness of the first is lower: -0.167 ± 0.062 for the first, 0.064 ± 0.06 for the second.

M70F and M70S are within error of each other in abundance fitness: -0.226 ± 0.13 for the first, -0.052 ± 0.052 for the second.

Going from E30I to E30H, the abundance fitness rises from -0.458 ± 0.1 to 0.019 ± 0.098.

First: D18A
Second: D18L
The abundance fitness of the first is higher: -0.462 ± 0.088 for the first, -0.956 ± 0.2 for the second.

Going from Q23D to W67A, the abundance fitness falls from -0.276 ± 0.12 to -0.944 ± 0.22.

E38V and E38F are within error of each other in abundance fitness: -0.222 ± 0.053 for the first, -0.216 ± 0.091 for the second.

Compared with M12G, L34V is higher in abundance fitness: -0.286 ± 0.059 for the first, -0.043 ± 0.064 for the second.

Going from E60C to L56H, the abundance fitness falls from -0.172 ± 0.1 to -0.953 ± 0.32.

L56P and L2V are within error of each other in abundance fitness: -0.931 ± 0.21 for the first, -0.714 ± 0.18 for the second.

L2T and L2A are within error of each other in abundance fitness: -0.622 ± 0.31 for the first, -0.494 ± 0.13 for the second.

S16M and S16P are within error of each other in abundance fitness: -0.365 ± 0.32 for the first, -0.859 ± 0.23 for the second.

First: R63P
Second: R63A
The abundance fitness of the first is lower: -1.02 ± 0.18 for the first, -0.056 ± 0.043 for the second.

Compared with L77R, A72H is higher in abundance fitness: -1.06 ± 0.31 for the first, -0.375 ± 0.15 for the second.

A72I and A72Y are within error of each other in abundance fitness: -0.745 ± 0.23 for the first, -0.452 ± 0.26 for the second.

Q65I and Q65S are within error of each other in abundance fitness: -0.336 ± 0.27 for the first, -0.02 ± 0.059 for the second.

Q65F and E17V are within error of each other in abundance fitness: -0.248 ± 0.15 for the first, -0.253 ± 0.064 for the second.

E17D and E17W are within error of each other in abundance fitness: -0.035 ± 0.09 for the first, -0.187 ± 0.095 for the second.

Compared with P47Y, P47A is higher in abundance fitness: -0.891 ± 0.36 for the first, -0.07 ± 0.059 for the second.

E45N and E45L are within error of each other in abundance fitness: -0.933 ± 0.5 for the first, -0.875 ± 0.14 for the second.

First: Y3G
Second: Y3F
The abundance fitness of the first is lower: -0.955 ± 0.2 for the first, -0.238 ± 0.21 for the second.

Compared with R5G, N48P is lower in abundance fitness: -0.105 ± 0.063 for the first, -0.65 ± 0.13 for the second.

N48H and N48Y are within error of each other in abundance fitness: -0.022 ± 0.12 for the first, -0.006 ± 0.23 for the second.

L11G and L11F are within error of each other in abundance fitness: -0.092 ± 0.057 for the first, -0.017 ± 0.091 for the second.

Going from L11P to L37W, the abundance fitness falls from -0.004 ± 0.089 to -0.799 ± 0.15.

First: L37T
Second: L37A
The abundance fitness of the first is higher: -0.326 ± 0.11 for the first, -0.553 ± 0.1 for the second.

C64T and C64Y are within error of each other in abundance fitness: -0.213 ± 0.25 for the first, -0.116 ± 0.15 for the second.

C64M showed an abundance fitness of -0.404 ± 0.12.
